Experimental data as given in patent US20200024330A1.

Tests used:
Assay in all cases: cell-based or functional assay
[1] = molecular target: HIV-1 Env of isolate MGRM-C-010 (HIV-1)
[2] = molecular target: HIV-1 Env of isolate 98CN009 (HIV-1)
[3] = molecular target: HIV-1 Env of isolate CAAN.A2 (HIV-1)
[4] = molecular target: HIV-1 Env of isolate VLGCA1 (clade A), on pseudovirus (HIV-1)
[5] = molecular target: HIV-1 Env of isolate 92WR009 (HIV-1)
[6] = molecular target: HIV-1 Env of isolate MGRM-C-026 (HIV-1)
[7] = molecular target: HIV-1 Env of isolate MGRM-AE-006 (CRF01_AE), on pseudovirus (HIV-1)
[8] = molecular target: HIV-1 Env of isolate MGRM-A-014 (clade A), on pseudovirus (HIV-1)
[9] = molecular target: HIV-1 Env of isolate MGRM-C-013 (HIV-1)
[10] = molecular target: HIV-1 Env of isolate MGRM-Chronic-B-001 (HIV-1)
[11] = molecular target: HIV-1 Env of isolate MGRM-D-029 (subtype D), on pseudovirus (HIV-1)
[12] = molecular target: HIV-1 Env of isolate MGRM-F1-015 (subtype F), on pseudovirus (HIV-1)
[13] = molecular target: HIV-1 Env of isolate 92UG031 (HIV-1)
[14] = molecular target: HIV-1 Env of isolate 92RW008 (HIV-1)
[15] = molecular target: HIV-1 JR-CSF Env T162A (HIV-1 (isolate JR-CSF)) (UniProt P20871)
[16] = molecular target: HIV-1 JR-CSF Env N134A (HIV-1 (isolate JR-CSF)) (UniProt P20871)
[17] = molecular target: HIV-1 Env of isolate MGRM-C-027 (pseudovirus) (HIV-1 isolate MGRM-C-027, subtype C)
[18] = molecular target: HIV-1 Env of isolate MGRM-F1-012 (subtype F) (HIV-1)
[19] = molecular target: HIV-1 MGRM-C-027 envelope glycoprotein (Env) on pseudovirus (HIV-1)
[20] = molecular target: HIV-1 Env of isolate MG RM-D-018 (subtype D) (HIV-1)
[21] = molecular target: HIV-1 MGRM-A-010 envelope glycoprotein (Env) on pseudovirus (HIV-1)
[22] = molecular target: HIV-1 APV6 envelope glycoprotein (Env) on pseudovirus (HIV-1)
[23] = molecular target: HIV-1 Env of isolate MGRM-C-007 (pseudovirus) (HIV-1 isolate MGRM-C-007, subtype C)
[24] = molecular target: HIV-1 Env of isolate MG RM-D-005 (subtype D) (HIV-1)
[25] = molecular target: HIV-1 Env of isolate MGRM-C-020 (pseudovirus) (HIV-1 isolate MGRM-C-020, subtype C)
[26] = molecular target: HIV-1 TRJ04551.58 Env (pseudovirus) (HIV-1)
[27] = molecular target: HIV-1 Env of isolate MG RM-D-001 (subtype D) (HIV-1)
[28] = molecular target: HIV-1 Env of isolate MGRM-D-018 (clade D) (HIV-1)

Substance	IC50 [1] [µg/mL]	IC50 [2] [µg/mL]	IC50 [3] [µg/mL]	IC50, single-round pseudovirus neutralization [4] [µg/mL]	neutralization IC50 [5] [µg/mL]	IC50 [6] [µg/mL]	IC50, single-round pseudovirus neutralization [7] [µg/mL]	IC50, single-round pseudovirus neutralization [8] [µg/mL]	IC50 [9] [µg/mL]	IC50 [10] [µg/mL]	IC50, pseudovirus neutralization [11] [µg/mL]	IC50, pseudovirus neutralization [12] [µg/mL]	neutralization IC50 [13] [µg/mL]	neutralization IC50 [14] [µg/mL]	Fold IC50 increase relative to wild-type [15] [fold]	Fold IC50 increase relative to wild-type [16] [fold]	IC50 (µg/mL) neutralization [17] [µg/mL]	IC50 (ug/ml), neutralizing activity [19] [µg/mL]	IC50 (ug/ml), neutralizing activity [21] [µg/mL]	IC50 (ug/ml), neutralizing activity [22] [µg/mL]	other results
5329_C19 (PGT-136) (antibody)	> 50	0.428	> 50	> 50	> 50	0.006	> 50	> 50	> 50	> 50	> 50	> 50	> 50	> 50	–	–	–	–	–	–	–
5136_H01 (PGT-131) (antibody)	> 50	4.05	> 50	> 50	3.12	1.67	0.026	15.4	> 50	> 50	> 50	> 50	> 50	1.01	0.6	0.5	–	–	–	–	–
5345_I01 (PGT-137) (antibody)	> 50	5.06	> 50	> 50	> 50	0.011	> 50	18.6	> 50	> 50	> 50	> 50	> 50	0.148	–	–	–	–	–	–	–
5343_B08 (PGT-135) (antibody)	> 50	0.071	5.15	> 50	> 50	0.004	> 50	0.636	> 50	> 50	30.8	1.11	> 50	1.42	0.9	0.2	–	–	–	–	–
5123_A06 (PGT-125) (antibody)	–	–	–	–	–	–	–	–	–	–	–	–	–	–	0.5	0.5	> 50	> 10	0.0025	0.0359	IC50 (µg/mL), pseudovirus neutralization [18]: > 50 µg/mL; neutralization IC50 [19]: > 10 µg/mL; neutralization IC80 [19]: > 10 µg/mL; neutralization IC90 [19]: > 10 µg/mL; neutralization IC95 [19]: > 10 µg/mL; IC50 (µg/mL), pseudovirus neutralization [20]: > 50 µg/mL; neutralization IC50 [21]: 0.0055 µg/mL; neutralization IC80 [21]: 0.024 µg/mL; neutralization IC90 [21]: 0.0575 µg/mL; neutralization IC95 [21]: 0.131 µg/mL; neutralization IC50 [22]: 0.0359 µg/mL; neutralization IC80 [22]: 0.133 µg/mL; neutralization IC90 [22]: 0.288 µg/mL; neutralization IC95 [22]: 0.597 µg/mL; IC50 (µg/mL) neutralization [23]: > 50 µg/mL; IC50 (µg/mL), pseudovirus neutralization [24]: > 50 µg/mL; IC50 (µg/mL) neutralization [25]: > 50 µg/mL; IC50, pseudovirus neutralization [26]: 0.019 µg/mL; IC50 (µg/mL), pseudovirus neutralization [27]: 2.84 µg/mL
5141_B17 (PGT-126) (antibody)	–	–	–	–	–	–	–	–	–	–	–	–	–	–	0.6	0.6	15.6	1.14	0.0033	0.0249	IC50 (µg/mL), pseudovirus neutralization [18]: 0.3 µg/mL; IC50 (µg/mL), pseudovirus neutralization [20]: 0.009 µg/mL; IC50 (µg/mL) neutralization [23]: 25.3 µg/mL; IC50 (µg/mL), pseudovirus neutralization [24]: 0.792 µg/mL; IC50 (µg/mL) neutralization [25]: > 50 µg/mL; IC50, pseudovirus neutralization [26]: 0.025 µg/mL; IC50 (µg/mL), pseudovirus neutralization [27]: 0.084 µg/mL
5147_N06 (PGT-130) (antibody)	> 50	0.136	> 50	> 50	1.27	0.036	0.009	0.161	> 50	> 50	> 50	> 50	> 50	0.039	0.6	0.6	–	0.0052	0.0054	> 10	neutralization IC50 [28]: 0.0378 µg/mL; neutralization IC80 [28]: 0.289 µg/mL; neutralization IC90 [28]: 2.31 µg/mL; neutralization IC95 [28]: > 10 µg/mL
5114_A19 (PGT-128) (antibody)	> 50	0.025	1.48	0.838	0.812	0.007	0.044	0.007	> 50	> 50	> 50	> 50	> 50	0.003	1.1	1.2	–	–	–	–	–
4858_P08 (PGT-123) (antibody)	–	–	–	–	–	–	–	–	–	–	–	–	–	–	0.7	0.4	0.02	0.0169	0.492	0.0327	IC50 (µg/mL), pseudovirus neutralization [18]: 22.2 µg/mL; IC50, pseudovirus neutralization [19]: 0.0169 µg/mL; IC80, pseudovirus neutralization [19]: 0.149 µg/mL; IC90 (pseudovirus neutralization) [19]: > 10 µg/mL; IC95, pseudovirus neutralization [19]: > 10 µg/mL; IC50 (µg/mL), pseudovirus neutralization [20]: 0.007 µg/mL; IC50, pseudovirus neutralization [21]: 0.492 µg/mL; IC80, pseudovirus neutralization [21]: 2.79 µg/mL; IC90 (pseudovirus neutralization) [21]: 6.44 µg/mL; IC95, pseudovirus neutralization [21]: > 10 µg/mL; IC50, pseudovirus neutralization [22]: 0.0328 µg/mL; IC80, pseudovirus neutralization [22]: 0.145 µg/mL; IC90 (pseudovirus neutralization) [22]: 0.339 µg/mL; IC95, pseudovirus neutralization [22]: 0.726 µg/mL; IC50 (µg/mL) neutralization [23]: 0.547 µg/mL; IC50 (µg/mL), pseudovirus neutralization [24]: > 50 µg/mL; IC50 (µg/mL) neutralization [25]: > 50 µg/mL; IC50, pseudovirus neutralization [26]: 16.9 µg/mL; IC50 (µg/mL), pseudovirus neutralization [27]: 0.147 µg/mL
